Laboratory results reported in patent publication US20250320304A1 (Janssen / Centocor, published 2025).

T1: BCMA on H929-Fluc-GFP cells (UniProt Q02223 1-184)
T1 sequence (looked up): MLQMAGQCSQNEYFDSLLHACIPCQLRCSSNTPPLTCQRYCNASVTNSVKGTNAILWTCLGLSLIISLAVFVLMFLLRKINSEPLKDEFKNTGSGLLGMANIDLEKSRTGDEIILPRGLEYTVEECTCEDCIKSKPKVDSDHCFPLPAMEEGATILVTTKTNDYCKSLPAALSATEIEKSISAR

T2: BCMA (BCMW37.DB.001) (UniProt Q02223 1-54, limits assumed)
T2 construct: The SPR antigen itself is named only by its batch label
T2 sequence (looked up): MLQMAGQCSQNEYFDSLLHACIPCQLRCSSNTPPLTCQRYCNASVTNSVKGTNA


Experiments:
[1] = target: CD3 on human donor Pan T cells (human); experiment: cell-based or functional assay
[2] = target: T1, BCMA on H929-Fluc-GFP cells; experiment: cell-based or functional assay
CD3W220.001 = experiment: SPR, CD3 antigen CD3W220.001
BCMA (BCMW37.DB.001) = target: T2, BCMA (BCMW37.DB.001); experiment: SPR, BCMA antigen BCMW37.DB.001

Sequence of BCMB1049 (chain): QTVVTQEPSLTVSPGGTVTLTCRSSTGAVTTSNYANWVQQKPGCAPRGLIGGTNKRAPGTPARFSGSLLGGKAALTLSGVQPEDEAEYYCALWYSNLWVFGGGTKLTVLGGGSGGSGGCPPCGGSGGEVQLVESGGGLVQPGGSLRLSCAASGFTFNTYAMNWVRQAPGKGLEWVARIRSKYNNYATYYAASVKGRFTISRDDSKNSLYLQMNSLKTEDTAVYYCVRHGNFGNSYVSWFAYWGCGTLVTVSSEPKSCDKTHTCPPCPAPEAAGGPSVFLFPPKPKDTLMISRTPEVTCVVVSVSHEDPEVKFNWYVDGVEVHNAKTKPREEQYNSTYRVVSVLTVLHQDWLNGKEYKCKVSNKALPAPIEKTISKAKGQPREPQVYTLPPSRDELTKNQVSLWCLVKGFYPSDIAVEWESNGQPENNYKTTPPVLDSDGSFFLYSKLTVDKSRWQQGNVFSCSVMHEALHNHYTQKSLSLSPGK
Sequence of CD3 on human donor Pan T cells (human) (chain, as listed by the source): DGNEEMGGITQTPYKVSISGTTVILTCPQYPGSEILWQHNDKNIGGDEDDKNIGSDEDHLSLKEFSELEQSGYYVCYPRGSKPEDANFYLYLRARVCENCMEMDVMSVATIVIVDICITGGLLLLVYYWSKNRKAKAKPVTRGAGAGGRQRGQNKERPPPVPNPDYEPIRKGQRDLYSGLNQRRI
Sequence of BCMB1050 (chain): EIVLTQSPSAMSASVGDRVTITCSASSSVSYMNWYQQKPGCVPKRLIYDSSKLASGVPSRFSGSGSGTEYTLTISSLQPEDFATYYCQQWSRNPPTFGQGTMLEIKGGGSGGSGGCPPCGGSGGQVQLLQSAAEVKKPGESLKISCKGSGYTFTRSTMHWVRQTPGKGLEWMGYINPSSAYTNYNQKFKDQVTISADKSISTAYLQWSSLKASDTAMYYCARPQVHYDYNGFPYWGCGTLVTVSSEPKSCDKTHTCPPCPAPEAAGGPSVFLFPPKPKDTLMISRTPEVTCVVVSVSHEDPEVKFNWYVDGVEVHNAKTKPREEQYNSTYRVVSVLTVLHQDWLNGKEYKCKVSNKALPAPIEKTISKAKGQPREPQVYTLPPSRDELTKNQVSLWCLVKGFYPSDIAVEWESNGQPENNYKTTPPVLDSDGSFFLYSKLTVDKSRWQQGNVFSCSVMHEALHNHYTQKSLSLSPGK
Sequence of BCMB1055 (chain): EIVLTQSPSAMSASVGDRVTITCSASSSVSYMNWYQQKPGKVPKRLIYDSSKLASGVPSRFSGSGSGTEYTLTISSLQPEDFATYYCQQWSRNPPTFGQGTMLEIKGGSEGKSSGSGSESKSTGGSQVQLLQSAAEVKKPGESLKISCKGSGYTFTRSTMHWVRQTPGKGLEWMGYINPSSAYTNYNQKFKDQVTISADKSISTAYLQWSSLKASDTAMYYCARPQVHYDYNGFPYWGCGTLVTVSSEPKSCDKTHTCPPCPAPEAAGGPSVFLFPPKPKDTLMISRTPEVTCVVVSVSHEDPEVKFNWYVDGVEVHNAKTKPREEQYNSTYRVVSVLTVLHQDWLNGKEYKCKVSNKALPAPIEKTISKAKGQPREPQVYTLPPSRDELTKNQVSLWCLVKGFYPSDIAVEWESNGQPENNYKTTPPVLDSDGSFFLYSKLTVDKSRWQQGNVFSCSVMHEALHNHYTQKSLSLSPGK

Binder	Bottom of fit, CD4/CD25+ T cell activation [1]	Bottom of fit, CD8/CD25+ T cell activation [1]	EC50 (nM), CD4/CD25+ T cell activation [1] [nM]	EC50 (nM), CD8/CD25+ T cell activation [1] [nM]	Top of fit (Cmax), CD4/CD25+ T cell activation [1]	Top of fit (Cmax), CD8/CD25+ T cell activation [1]	Bottom of fit, % Cytolysis [2] [%]	EC50 (nM), % Cytolysis [2] [nM]	Top of fit (Cmax), % Cytolysis [2] [%]	Kd (CD3W220.001) [pM]	koff (CD3W220.001) [s⁻¹]	kon (CD3W220.001) [M⁻¹ s⁻¹]	Kd (BCMA (BCMW37.DB.001)) [pM]	koff (BCMA (BCMW37.DB.001)) [s⁻¹]	kon (BCMA (BCMW37.DB.001)) [M⁻¹ s⁻¹]
BCMB1049 (bispecific antibody, human IgG1, kappa, L234A L235A, Humanized anti-BCMA Fab × stapled anti-CD3 (CD3B219) scFv-Fc, knob-in-hole Fc; also called BCMB1049.001; BCMB749h × CD3B219 spFv) light: DIQMTQSPSSVSASVGDRVTITCKASQNVGTAVAWYQQKPGQSPKLLIYSASNRYTGVPSRFSGSGSGTDFTLTISSLQPEDFATYFCQQYGSSPWTFGGGTKVEIKRTVAAPSVFIFPPSDEQLKSGTASVVCLLNNFYPREAKVQWKVDNALQSGNSQESVTEQDSKDSTYSLSSTLTLSKADYEKHKVYACEVTHQGLSSPVTKSFNRGEC heavy: QVQLVQSGAEVKKPGASVKVSCKASGYTFTNNVMHWVRQAPGQGLEWMGYILPYNDGTKYNQKFQGRVTLTSDKSASTAYMELSSLRSEDTAVYYCARYDYDGYFDYWGQGTTVTVSSASTKGPSVFPLAPSSKSTSGGTAALGCLVKDYFPEPVTVSWNSGALTSGVHTFPAVLQSSGLYSLSSVVTVPSSSLGTQTYICNVNHKPSNTKVDKKVEPKSCDKTHTCPPCPAPEAAGGPSVFLFPPKPKDTLMISRTPEVTCVVVSVSHEDPEVKFNWYVDGVEVHNAKTKPREEQYNSTYRVVSVLTVLHQDWLNGKEYKCKVSNKALPAPIEKTISKAKGQPREPQVYTLPPSREEMTKNQVSLSCAVKGFYPSDIAVEWESNGQPENNYKTTPPVLDSDGSFFLVSKLTVDKSRWQQGNVFSCSVMHEALHNRFTQKSLSLSPGK not shown	8.58	1.65	0.0409	0.0744	86.8	77	16.5	~0.0348	92.7	23600	0.00205	86900	1590	0.0219	1.38e+07
BCMB1050 (bispecific antibody, human IgG1, kappa, L234A L235A, Humanized anti-BCMA Fab × stapled anti-CD3 scFv-Fc, knob-in-hole Fc; also called BCMB1050.001; BCMB749h × Cris7b spFv) light: DIQMTQSPSSVSASVGDRVTITCKASQNVGTAVAWYQQKPGQSPKLLIYSASNRYTGVPSRFSGSGSGTDFTLTISSLQPEDFATYFCQQYGSSPWTFGGGTKVEIKRTVAAPSVFIFPPSDEQLKSGTASVVCLLNNFYPREAKVQWKVDNALQSGNSQESVTEQDSKDSTYSLSSTLTLSKADYEKHKVYACEVTHQGLSSPVTKSFNRGEC heavy: QVQLVQSGAEVKKPGASVKVSCKASGYTFTNNVMHWVRQAPGQGLEWMGYILPYNDGTKYNQKFQGRVTLTSDKSASTAYMELSSLRSEDTAVYYCARYDYDGYFDYWGQGTTVTVSSASTKGPSVFPLAPSSKSTSGGTAALGCLVKDYFPEPVTVSWNSGALTSGVHTFPAVLQSSGLYSLSSVVTVPSSSLGTQTYICNVNHKPSNTKVDKKVEPKSCDKTHTCPPCPAPEAAGGPSVFLFPPKPKDTLMISRTPEVTCVVVSVSHEDPEVKFNWYVDGVEVHNAKTKPREEQYNSTYRVVSVLTVLHQDWLNGKEYKCKVSNKALPAPIEKTISKAKGQPREPQVYTLPPSREEMTKNQVSLSCAVKGFYPSDIAVEWESNGQPENNYKTTPPVLDSDGSFFLVSKLTVDKSRWQQGNVFSCSVMHEALHNRFTQKSLSLSPGK not shown	8.05	1.32	0.0222	0.0343	86.4	80.1	17	0.0141	94.6	657000	0.121	184000	1750	0.021	1.2e+07
BCMB1051 (bispecific antibody, human IgG1, kappa, L234A L235A, Murine anti-BCMA Fab × stapled anti-CD3 (CD3B219) scFv-Fc, knob-in-hole Fc; also called BCMB1051.001; BCMB749 × CD3B219 spfv) light: DIVMTQSQKFMSTTVGDRVSITCKASQNVGTAVAWYQQKPGQSPKLLIYSASNRYTGVPDRFTGTGSGTDFTLTIINVQSEDLADYFCQQYGSSPWTFGGGTKLEIKRTVAAPSVFIFPPSDEQLKSGTASVVCLLNNFYPREAKVQWKVDNALQSGNSQESVTEQDSKDSTYSLSSTLTLSKADYEKHKVYACEVTHQGLSSPVTKSFNRGEC heavy: QVQLQQSGAELVKPGASVKLSCKASGYTFTNNVMHWVRQKPGQGLEWIGYILPYNDGTKYNEKFKGKATLTSDKSSSTAYMELSSLTSEDSAVYYCARYDYDGYFDYWGQGTTLTVSSASTKGPSVFPLAPSSKSTSGGTAALGCLVKDYFPEPVTVSWNSGALTSGVHTFPAVLQSSGLYSLSSVVTVPSSSLGTQTYICNVNHKPSNTKVDKKVEPKSCDKTHTCPPCPAPEAAGGPSVFLFPPKPKDTLMISRTPEVTCVVVSVSHEDPEVKFNWYVDGVEVHNAKTKPREEQYNSTYRVVSVLTVLHQDWLNGKEYKCKVSNKALPAPIEKTISKAKGQPREPQVYTLPPSREEMTKNQVSLSCAVKGFYPSDIAVEWESNGQPENNYKTTPPVLDSDGSFFLVSKLTVDKSRWQQGNVFSCSVMHEALHNRFTQKSLSLSPGK not shown	8.67	1.67	0.087	0.144	84.9	74	16.7	0.0594	92.4	21500	0.00171	79500	2470	0.0413	1.67e+07

Further lines, results first:

Bottom of fit, CD4/CD25+ T cell activation [1]	Bottom of fit, CD8/CD25+ T cell activation [1]	EC50 (nM), CD4/CD25+ T cell activation [1] [nM]	EC50 (nM), CD8/CD25+ T cell activation [1] [nM]	Top of fit (Cmax), CD4/CD25+ T cell activation [1]	Top of fit (Cmax), CD8/CD25+ T cell activation [1]	Bottom of fit, % Cytolysis [2] [%]	EC50 (nM), % Cytolysis [2] [nM]	Top of fit (Cmax), % Cytolysis [2] [%]	Kd (CD3W220.001) [pM]	koff (CD3W220.001) [s⁻¹]	kon (CD3W220.001) [M⁻¹ s⁻¹]	Kd (BCMA (BCMW37.DB.001)) [pM]	koff (BCMA (BCMW37.DB.001)) [s⁻¹]	kon (BCMA (BCMW37.DB.001)) [M⁻¹ s⁻¹]	Binder
7.46	0.97	0.0447	0.0859	87.4	81.2	16.1	0.0301	93.2	746000	0.199	267000	1770	0.0223	1.26e+07	BCMB1055 (bispecific antibody, human IgG1, kappa, L234A L235A, Humanized anti-BCMA Fab × anti-CD3 scFv-Fc, knob-in-hole Fc; also called BCMB1055.001; BCMB749h × Cris7b scFv) light: DIQMTQSPSSVSASVGDRVTITCKASQNVGTAVAWYQQKPGQSPKLLIYSASNRYTGVPSRFSGSGSGTDFTLTISSLQPEDFATYFCQQYGSSPWTFGGGTKVEIKRTVAAPSVFIFPPSDEQLKSGTASVVCLLNNFYPREAKVQWKVDNALQSGNSQESVTEQDSKDSTYSLSSTLTLSKADYEKHKVYACEVTHQGLSSPVTKSFNRGEC heavy: QVQLVQSGAEVKKPGASVKVSCKASGYTFTNNVMHWVRQAPGQGLEWMGYILPYNDGTKYNQKFQGRVTLTSDKSASTAYMELSSLRSEDTAVYYCARYDYDGYFDYWGQGTTVTVSSASTKGPSVFPLAPSSKSTSGGTAALGCLVKDYFPEPVTVSWNSGALTSGVHTFPAVLQSSGLYSLSSVVTVPSSSLGTQTYICNVNHKPSNTKVDKKVEPKSCDKTHTCPPCPAPEAAGGPSVFLFPPKPKDTLMISRTPEVTCVVVSVSHEDPEVKFNWYVDGVEVHNAKTKPREEQYNSTYRVVSVLTVLHQDWLNGKEYKCKVSNKALPAPIEKTISKAKGQPREPQVYTLPPSREEMTKNQVSLSCAVKGFYPSDIAVEWESNGQPENNYKTTPPVLDSDGSFFLVSKLTVDKSRWQQGNVFSCSVMHEALHNRFTQKSLSLSPGK not shown
8.12	0.941	0.0627	0.117	80.9	73.5	15.4	0.0489	93.4	502000	0.105	210000	2740	0.039	1.42e+07	BCMB1052 (bispecific antibody, human IgG1, kappa, L234A L235A, Murine anti-BCMA Fab × stapled anti-CD3 scFv-Fc, knob-in-hole Fc; also called BCMB1052.001; BCMB749 × Cris7b spFv) light: DIVMTQSQKFMSTTVGDRVSITCKASQNVGTAVAWYQQKPGQSPKLLIYSASNRYTGVPDRFTGTGSGTDFTLTIINVQSEDLADYFCQQYGSSPWTFGGGTKLEIKRTVAAPSVFIFPPSDEQLKSGTASVVCLLNNFYPREAKVQWKVDNALQSGNSQESVTEQDSKDSTYSLSSTLTLSKADYEKHKVYACEVTHQGLSSPVTKSFNRGEC heavy: QVQLQQSGAELVKPGASVKLSCKASGYTFTNNVMHWVRQKPGQGLEWIGYILPYNDGTKYNEKFKGKATLTSDKSSSTAYMELSSLTSEDSAVYYCARYDYDGYFDYWGQGTTLTVSSASTKGPSVFPLAPSSKSTSGGTAALGCLVKDYFPEPVTVSWNSGALTSGVHTFPAVLQSSGLYSLSSVVTVPSSSLGTQTYICNVNHKPSNTKVDKKVEPKSCDKTHTCPPCPAPEAAGGPSVFLFPPKPKDTLMISRTPEVTCVVVSVSHEDPEVKFNWYVDGVEVHNAKTKPREEQYNSTYRVVSVLTVLHQDWLNGKEYKCKVSNKALPAPIEKTISKAKGQPREPQVYTLPPSREEMTKNQVSLSCAVKGFYPSDIAVEWESNGQPENNYKTTPPVLDSDGSFFLVSKLTVDKSRWQQGNVFSCSVMHEALHNRFTQKSLSLSPGK not shown
8.29	1.42	0.105	0.15	82.7	75.3	17.2	0.0758	92.7	951000	0.237	249000	2610	0.0389	1.49e+07	BCMB1056 (bispecific antibody, human IgG1, kappa, L234A L235A, Murine anti-BCMA Fab × anti-CD3 scFv-Fc, knob-in-hole Fc; also called BCMB1056.001; BCMB749 × Cris7b scFv) light: DIVMTQSQKFMSTTVGDRVSITCKASQNVGTAVAWYQQKPGQSPKLLIYSASNRYTGVPDRFTGTGSGTDFTLTIINVQSEDLADYFCQQYGSSPWTFGGGTKLEIKRTVAAPSVFIFPPSDEQLKSGTASVVCLLNNFYPREAKVQWKVDNALQSGNSQESVTEQDSKDSTYSLSSTLTLSKADYEKHKVYACEVTHQGLSSPVTKSFNRGEC heavy: QVQLQQSGAELVKPGASVKLSCKASGYTFTNNVMHWVRQKPGQGLEWIGYILPYNDGTKYNEKFKGKATLTSDKSSSTAYMELSSLTSEDSAVYYCARYDYDGYFDYWGQGTTLTVSSASTKGPSVFPLAPSSKSTSGGTAALGCLVKDYFPEPVTVSWNSGALTSGVHTFPAVLQSSGLYSLSSVVTVPSSSLGTQTYICNVNHKPSNTKVDKKVEPKSCDKTHTCPPCPAPEAAGGPSVFLFPPKPKDTLMISRTPEVTCVVVSVSHEDPEVKFNWYVDGVEVHNAKTKPREEQYNSTYRVVSVLTVLHQDWLNGKEYKCKVSNKALPAPIEKTISKAKGQPREPQVYTLPPSREEMTKNQVSLSCAVKGFYPSDIAVEWESNGQPENNYKTTPPVLDSDGSFFLVSKLTVDKSRWQQGNVFSCSVMHEALHNRFTQKSLSLSPGK not shown
